# Measured values published in the supplement of paper PMC7125110.
# ± gives the standard error. Fewer inactive variants are shown than the library holds.
# B1: glmS ribozyme (parent)
# chain: AUAAAAGCGCCAGAACUACAGAAAUGUAGUUGACGAGGAGGAGGUUUAUCGAAUUUUCGGCGGAUGCCUCCAAA
# Experiments:
# Settings in all cases: with glucosamine-6-phosphate
# glucosamine-6-phosphate [1] = variants of: B1; experiment: self-cleavage kobs at 160 uM GlcN6P; higher = faster cleavage; RNA array
# How it was run: (§1)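 Barcoded ribozyme variants, transcribed in situ by E. coli RNA polymerase on sequenced MiSeq chips, were followed via a hybridised Cy3 probe at 37 °C. Glucosamine-6-phosphate ranged from 40 μM to 10 mM in HEPES/KCl/Mg(OAc)2 buffer. kobs came from decay fits to per-tile medians, and kcat and KM from weighted Michaelis–Menten fits.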
# glucosamine-6-phosphate [2] = variants of: B1; experiment: self-cleavage kobs at 640 uM GlcN6P; higher = faster cleavage; RNA array
# How it was run: as §1
# glucosamine-6-phosphate [3] = variants of: B1; experiment: self-cleavage kobs at 2500 uM GlcN6P; higher = faster cleavage; RNA array
# How it was run: as §1
# glucosamine-6-phosphate [4] = variants of: B1; experiment: self-cleavage kobs at 10000 uM GlcN6P; higher = faster cleavage; RNA array
# How it was run: as §1
Variant,self-cleavage kobs at 160 uM GlcN6P (glucosamine-6-phosphate [1]) [s⁻¹],self-cleavage kobs at 640 uM GlcN6P (glucosamine-6-phosphate [2]) [s⁻¹],self-cleavage kobs at 2500 uM GlcN6P (glucosamine-6-phosphate [3]) [s⁻¹],self-cleavage kobs at 10000 uM GlcN6P (glucosamine-6-phosphate [4]) [s⁻¹]
G13C C16A C68U,< 1e-05,,,
G51C G60A U69A,< 1e-05,,,
G9U C16U,< 1e-05,< 1e-05,< 1e-05,< 1e-05
A15G U55G C70A,7.19e-05 ± 1.2e-05,0.000151 ± 2.6e-05,0.000186 ± 3.7e-05,
A48G U57A,< 1e-05,< 1e-05,< 1e-05,
A14G G35A,< 1e-05,< 1e-05,< 1e-05,< 1e-05
A52C U65C,< 1e-05,< 1e-05,,
C10U A15U,< 1e-05,,,< 1e-05
C10G G13A U31A C50A G59U,< 1e-05,,,
A6U U65G C70U,< 1e-05,< 1e-05,,
G35A C68U,< 1e-05,,< 1e-05,
G13U G32U C34A G35U,< 1e-05,< 1e-05,< 1e-05,
C16U G29C G44U C67G,0.000224 ± 0.0001,,,
G13C C68U C71U,< 1e-05,< 1e-05,,
A6C A12C A36C G43A G51U C70G,< 1e-05,< 1e-05,,
U31A A33G A48G,< 1e-05,,,
G51U U55G C58G C61G,3.64e-05 ± 1.6e-05,,,
U47G C50A A64G U69G,0.000158 ± 4.6e-05,0.000155 ± 3.9e-05,0.000142 ± 3.1e-05,3.49e-05 ± 1.6e-05
U31A A33G,< 1e-05,< 1e-05,,< 1e-05
G9C G38C G63U,< 1e-05,,< 1e-05,
C61U G62U,< 1e-05,< 1e-05,,< 1e-05
A53G U55A G66U,0.000163 ± 4.6e-05,0.000436 ± 9.4e-05,0.000351 ± 0.00011,
A15C U30G U31G,0.00201 ± 0.00083,0.0146 ± 0.0069,0.00946 ± 0.0035,
C10G A12G G38C,< 1e-05,< 1e-05,,
G43U U57A,< 1e-05,,< 1e-05,
C8G C61A C68U,< 1e-05,,,
G13A C34G G62U,< 1e-05,< 1e-05,,

Variant,self-cleavage kobs at 160 uM GlcN6P (glucosamine-6-phosphate [1]) [s⁻¹],self-cleavage kobs at 640 uM GlcN6P (glucosamine-6-phosphate [2]) [s⁻¹],self-cleavage kobs at 2500 uM GlcN6P (glucosamine-6-phosphate [3]) [s⁻¹],self-cleavage kobs at 10000 uM GlcN6P (glucosamine-6-phosphate [4]) [s⁻¹]
G32U G41A U47G C61A G62U,< 1e-05,< 1e-05,< 1e-05,
G7C U56A,< 1e-05,< 1e-05,< 1e-05,< 1e-05
G29U A39G U56A,8.2e-05 ± 2.8e-05,0.001 ± 0.00039,0.00181 ± 0.00055,
C8U U46A,< 1e-05,,< 1e-05,< 1e-05
C10G G32U C34U G40U G41C,< 1e-05,< 1e-05,< 1e-05,
G32C A36U C50A C70G,0.0002 ± 3.9e-05,0.000332 ± 8.2e-05,0.000299 ± 0.0001,
G41C A48G G63U,< 1e-05,< 1e-05,< 1e-05,
A15C A64U,< 1e-05,< 1e-05,,
A36C U47G U69G,0.000151 ± 3.4e-05,8.37e-05 ± 1.5e-05,0.000213 ± 6e-05,
G41C U54G C67U,< 1e-05,,,
G9A U30C A42C C70U,< 1e-05,< 1e-05,,
A12U G35A G40U,< 1e-05,< 1e-05,< 1e-05,
C50G U54A U65A,0.00014 ± 3.8e-05,,5.15e-05 ± 2e-05,5.29e-05 ± 1.5e-05
A12C G29C A52C A64C,< 1e-05,< 1e-05,,
C34A G66U,< 1e-05,< 1e-05,,< 1e-05
A15C A42U U46G C50G,< 1e-05,< 1e-05,< 1e-05,
G35U U69A,< 1e-05,< 1e-05,< 1e-05,
A6U G38U G60C,< 1e-05,,,
C11U A42U G43U A53G C68G,0.0001 ± 3.7e-05,0.000213 ± 6.4e-05,0.0001 ± 3.5e-05,
C8A C70G,< 1e-05,,,
G43C G60C C68U,< 1e-05,< 1e-05,,
A6G C8G U31A G32U,< 1e-05,,,
U49G G60C,< 1e-05,< 1e-05,< 1e-05,
U31A G43A,< 1e-05,< 1e-05,,2.99e-05 ± 9.3e-06
C16G G51U U56C C70U,< 1e-05,< 1e-05,,
A14G U31C U56A,0.0016 ± 0.00031,0.00939 ± 0.0013,0.0277 ± 0.0066,
